Data as given in patent US9044392B2, “Nylon-3 co-polymers and synthetic lung surfactant compositions containing same” (Wisconsin Alumni Research Foundation, priority 2010, dated 2015).
Like-named read-outs stand apart in the source and are kept apart here.

Tests used:
[1] = Pulsating bubble surfactometry (PBS), static-bubble mode adsorption; type: physicochemical; conditions: 37° C., mimic 10 wt % in TL, originally synthesized polymers
Description: (§1) Surfactant Sample Preparation: The lipids DPPC, POPG, and PA were individually dissolved in a chloroform/methanol solution (3/1 [v/v]) to a known concentration (˜2 or 4 mg mL^−1). Single-lipid solutions were then combined by volume at the ratio of DPPC:POPG:PA, 68:22:9 [wt:wt:wt] and to a known total lipid concentration (˜2 mg mL^−1). This well-characterized and well-known lipid formulation is considered an adequate mimic of the non-protein (lipid) fraction of LS.^45 The peptides, peptoid, and copolymers were individually dissolved in methanol from a lyophilized powder to a known concentration (1-2 mg mL^−1). For the PBS studies, the peptides, peptoids, and polymers were ‘spiked’ into the lipid mixture at 10 wt % relative to the total lipid content (9.1 absolute wt %), and to a final concentration of ˜1 mg lipid mL^−1. For comparative purposes, the inclusion of peptide/peptoid/copolymer at 10 wt % corresponds to 10 wt % SP-B1-25 (9.1 absolute wt %) relative to the total lipid content. The total combined protein fraction in natural LS is estimated to be ˜10 wt %.^18 For PBS experiments, all σ reported is the standard deviation of the mean.
(§2) Pulsating Bubble Surfactometry: A commercial PBS instrument (General Transco, Largo, Fla.), modified with a direct, real-time imaging system, which has been previously described and validated in detail,^44 was utilized to obtain both static-mode and dynamic-mode data. Samples were dried from chloroform/methanol 3/1 [v/v] in Eppendorf tubes using a DNA 120 speedvac (Thermo Electron, Holbrook, N.Y.), forming a pellet. The pellet was suspended in buffer (150 mM NaCl, 10 mM HEPES, 5 mM CaCl2, pH 6.9) to 1.0 mg lipid mL^−1, with a final known volume of ˜70 μL. The samples were then mixed with a pipette 20 times, sonicated with a Fisher Model 60 probe sonicator for two 15 second spurts, and then mixed again 20 times to form a dispersed suspension. Samples were then loaded into a small plastic sample chamber (General Transco) using a modified leak-free methodology.^43,44 The sample chamber was then placed in the instrument, surrounded by a water bath held at 37° C. A bubble with a radius of 0.4 mm was then formed, and surface area was monitored throughout the experiment.
(§3) Static-mode adsorption data were collected for 20 minutes, where the suspension was allowed to adsorb to the bubble surface over time. […] Dynamic-mode data were then subsequently obtained for each sample at the adult respiratory cycle frequency of 20 cpm for 10 minutes, with a 50% reduction in surface area per pulsation cycle. PBS experiments were repeated three to six times for each sample to ensure repeatability. Representative PBS loops are presented at five minutes of cycling, and indicate clockwise bubble expansion and counterclockwise compression (see FIGS. 6A, 6B, 6C, and 6D). Average γ±σ at selected time intervals are listed in the Examples for both data collection modes. Percent compression is defined here as 100*[(SAmax−SA20)/(SAmax)], where SAmax was the maximum SA value at expansion, and SA20 was the SA at which γ first reaches 20 mN m^−1 upon compression (FIG. 5).
Pulsating Bubble Surfactometry: Static-Bubble Mode. The immediate adsorptive, γ-reducing effect, and stability of the films over time at a bubble […] interface were assessed via PBS in static-bubble mode. […]

[2] = Pulsating bubble surfactometry (PBS), dynamic-bubble mode, 20 cpm; type: physicochemical
Description: as §1, §2, §3
Pulsating Bubble Surfactometry: Dynamic-Bubble Mode. The dynamic surfactant activity during changes in volume or film surface area provides an indication of film sustainability over time. Bubble pulsation at the approximate adult respiratory rate of 20 cycles per minute (cpm) in PBS dynamic-bubble mode at 37° C. permits a simplified evaluation of such dynamic film behavior.^44 In dynamic mode, after static-bubble adsorption, the bubble was subsequently pulsed for 10 minutes and y was recorded with respect to surface area. FIGS. 4A, 4B, 4C, and 4D depict the attained maximum and minimum γ (γmax/min) at 5 minutes of cycling for all lipid films containing polymers or positive controls. Mean γmax/min's±σ at selected time intervals for up to 10 minutes of cycling are located in Tables 4 and 5. […]

[3] = at 5 minutes, static-bubble mode, TL film; cited from earlier work
[4] = dynamic-bubble mode, cited from earlier work
[5] = 5 minutes of dynamic-bubble cycling, 20 cpm, 37° C. (FIGS. 4A-4D)
[6] = dynamic-bubble pulsation, 1 min, 37° C., mimic 10 wt % in TL, originally synthesized polymers
[7] = dynamic-bubble pulsation, 2.5 min, 37° C., mimic 10 wt % in TL, originally synthesized polymers
[8] = dynamic-bubble pulsation, 10 min, 37° C., mimic 10 wt % in TL, originally synthesized polymers

Molecule	γ 1 min Avg (mean surface tension) ([1]; 1 min) [mN m−1]	γ 2.5 min Avg (mean surface tension) ([1]; 2.5 min) [mN m−1]	γ 5 min Avg (mean surface tension) ([1]; 5 min) [mN m−1]	γ 10 min Avg (mean surface tension) ([1]; 10 min) [mN m−1]	γeq 20 min Avg (mean surface tension) ([1]; 20 min) [mN m−1]	γmax [2, 5] [mN m^−1]	γmin [2, 5]	Avg % Comp: percent bubble surface area compression required to reach 20 mN m-1 upon compression ([2]; at 5 minutes of dynamic-bubble pulsation on the PBS, 37° C.) [%]	γ max Avg, 1 min [2, 6] [mN m−1]	γ min Avg, 1 min [2, 6] [mN m−1]	γ max Avg, 2.5 min [2, 7] [mN m−1]	γ min Avg, 2.5 min [2, 7] [mN m−1]	γ max Avg, 10 min [2, 8] [mN m−1]	γ min Avg, 10 min [2, 8] [mN m−1]	adsorbed γ [3] [mN m^−1]	γmax ([4]; PBS cycling loop) [mN m^−1]	γmin ([4]; PBS cycling loop)	percent compression to reach 20 mN m^−1 [4] [%]
SP-B1-25: modified peptide SP-B1-25 (Cys8,11→Ala), surface-active peptide fragment of SP-B, positive control (FPIPLPYAWLARALIKRIQAMIPKG; Pulmonary surfactant-associated protein B in Tanaka lipid film; UniProt P07988 201-225, looked up, variant C8A C11A)	40.5	39.4	37.9	36.8	35.6	~50	near zero	33.2	49.6	<1	49.9	<1	49.8	<1				
SP-B: porcine-derived lung surfactant protein B in the Tanaka lipid film (protein, UniProt P15782 1-79, looked up, Pulmonary surfactant-associated protein B in Tanaka lipid film) Pulmonary …: FPIPLPFCWLCRTLIKRIQAVVPKGVLLKAVAQVCHVVPLPVGGICQCLAERYIVICLNMLLDRTLPQLVCGLVLRCSS															~26	~36	near-zero	~21
